Measured values: the supplement of paper PMC7125110
± gives the standard error. For some of these results: Fewer inactive variants are shown than the library holds.

B1: glmS ribozyme (parent)
chain: AUAAAAGCGCCAGAACUACAGAAAUGUAGUUGACGAGGAGGAGGUUUAUCGAAUUUUCGGCGGAUGCCUCCAAA

Key:
Conditions in all cases: with glucosamine-6-phosphate
[1] = variants of: B1; assay: kcat; higher = faster cleavage; RNA array
Procedure, shortened: (§1)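 Barcoded ribozyme variants on sequenced MiSeq chips were transcribed in situ by E. coli RNA polymerase and followed at 37 °C through a hybridised Cy3 probe. Glucosamine-6-phosphate at 40 μM to 10 mM in HEPES/KCl/Mg(OAc)2 buffer was flowed in, and tiles were imaged over ~14 h. Signals were normalised to baseline and to non-cleaving reference variants, and per-tile medians were fit to one- or two-exponential decays to give kobs. Weighted Michaelis–Menten fits across concentrations gave kcat and KM.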

[2] = variants of: B1; assay: self-cleavage kobs at 640 uM GlcN6P; higher = faster cleavage; RNA array
Procedure, shortened: as §1

[3] = variants of: B1; assay: self-cleavage kobs at 2500 uM GlcN6P; higher = faster cleavage; RNA array
Procedure, shortened: as §1

[4] = variants of: B1; assay: self-cleavage kobs at 10000 uM GlcN6P; higher = faster cleavage; RNA array
Procedure, shortened: as §1

[5] = variants of: B1; assay: self-cleavage kobs at 40 uM GlcN6P; higher = faster cleavage; RNA array
Procedure, shortened: as §1

[6] = variants of: B1; assay: KM; higher = weaker cofactor use; RNA array
Procedure, shortened: as §1

[7] = variants of: B1; assay: self-cleavage kobs at 160 uM GlcN6P; higher = faster cleavage; RNA array
Procedure, shortened: as §1

Variant | kcat [1] [s⁻¹] | self-cleavage kobs at 640 uM GlcN6P [2] [s⁻¹] | self-cleavage kobs at 2500 uM GlcN6P [3] [s⁻¹] | self-cleavage kobs at 10000 uM GlcN6P [4] [s⁻¹] | self-cleavage kobs at 40 uM GlcN6P [5] [s⁻¹] | KM [6] [µM] | self-cleavage kobs at 160 uM GlcN6P [7] [s⁻¹]
G29U U69A | 5.85e-05 ± 1.1e-05 | 3.35e-05 ± 1e-05 | 6.77e-05 ± 9.3e-06 | 4.84e-05 ± 1.1e-05 |  |  | 
A39C U57A | 2.13e-05 ± 6e-06 |  | 2.6e-05 ± 1.3e-05 |  | < 1e-05 |  | 
U55G G66C | 0.000625 ± 0.00013 | 0.000216 ± 4.5e-05 | 0.000325 ± 7e-05 | 0.000624 ± 0.0001 |  |  | 
U31A A53G | 0.0153 ± 0.0017 | 0.0038 ± 0.00071 | 0.0096 ± 0.0019 | 0.0127 ± 0.002 | 0.00035 ± 4.3e-05 | 1860 ± 270 | 0.00107 ± 0.00018
A15U U54G | 0.00446 ± 0.00053 | 0.00189 ± 0.00075 | 0.00279 ± 0.00048 | 0.00368 ± 0.0005 | 8.2e-05 ± 2.2e-05 | 1730 ± 330 | 0.000411 ± 6.8e-05
U47A C71A | 0.00195 ± 0.00046 | 0.00117 ± 0.00028 | 0.00138 ± 0.00038 | 0.00153 ± 0.00055 | 6.97e-05 ± 1.4e-05 | 1020 ± 320 | 0.000253 ± 6.8e-05
G13U A42C U69G | 0.00178 ± 0.00081 | 0.00028 ± 5.9e-05 | 0.000852 ± 0.00026 | 0.00141 ± 0.00021 | 8.5e-05 ± 2.1e-05 |  | 
G29U C71G | 0.000186 ± 4.6e-05 | 8.34e-05 ± 7.2e-06 | 0.000186 ± 2.6e-05 | 0.000186 ± 1.9e-05 | 3.23e-05 ± 9.4e-06 |  | 6.19e-05 ± 9.3e-06
C34G A52G | < 1e-05 |  | < 1e-05 |  |  |  | 
U30C A53C | 3.34e-05 ± 6.8e-06 |  | 3.87e-05 ± 9.7e-06 | 2.78e-05 ± 9e-06 |  |  | < 1e-05
A48C | 0.000456 ± 3.9e-05 | 9.91e-05 ± 2.7e-06 | 0.000279 ± 6.6e-06 | 0.000362 ± 6.6e-06 |  | 2180 ± 390 | 2.69e-05 ± 2.4e-06
G51A U54A G59A C68G | 2.9e-05 ± 7.6e-06 |  |  |  |  |  | 
A6C A53C | 2.09e-05 ± 4.9e-07 | < 1e-05 |  |  |  | 1550 ± 150 | < 1e-05
A12U C67G C68G | 4.76e-05 ± 1.4e-05 | 6.79e-05 ± 1.9e-05 | 4.47e-05 ± 1.5e-05 |  |  |  | 7.57e-05 ± 3.2e-05
U57G C70U | 7.01e-05 ± 1.4e-05 | 5.96e-05 ± 1.8e-05 | 4.91e-05 ± 8.8e-06 | 8.12e-05 ± 1.3e-05 |  |  | 
U55A G66U | 0.00223 ± 0.00093 | 0.000355 ± 7.1e-05 | 0.00136 ± 0.00021 | 0.00195 ± 0.00029 | 7.9e-05 ± 1.3e-05 |  | 0.000202 ± 5.4e-05
U31C A53C | 0.00137 ± 0.00011 | 0.00028 ± 8e-05 | 0.0007 ± 0.00011 | 0.00116 ± 0.0002 |  | 2260 ± 350 | 0.00011 ± 3.6e-05

Variant | kcat [1] [s⁻¹] | self-cleavage kobs at 640 uM GlcN6P [2] [s⁻¹] | self-cleavage kobs at 2500 uM GlcN6P [3] [s⁻¹] | self-cleavage kobs at 10000 uM GlcN6P [4] [s⁻¹] | self-cleavage kobs at 40 uM GlcN6P [5] [s⁻¹] | KM [6] [µM] | self-cleavage kobs at 160 uM GlcN6P [7] [s⁻¹]
C67A C71A | 0.000401 ± 8.3e-05 | 0.00013 ± 4.6e-05 | 0.000277 ± 4.8e-05 | 0.000361 ± 4.3e-05 | 4.21e-05 ± 1.2e-05 |  | 
A15U U30A | 0.0245 ± 0.006 | 0.0102 ± 0.0044 |  | 0.0272 ± 0.0062 | 0.00246 ± 0.0004 | 377 ± 130 | 
C61A U65G C67U | 2.68e-05 ± 7.3e-06 |  |  |  |  |  | 
A12U G59U | 1.03e-05 ± 1e-06 |  |  |  |  |  | 
A52G U54C | 0.00197 ± 7e-05 | 0.000379 ± 5.7e-05 | 0.000985 ± 0.00015 | 0.00153 ± 0.00019 | 2.55e-05 ± 1.1e-05 | 2700 ± 150 | 0.000111 ± 1.8e-05
G32U U65A | 0.000104 ± 1.3e-05 |  |  | 6.61e-05 ± 1.3e-05 |  | 5750 ± 1600 | < 1e-05
G7A U69C | < 1e-05 |  |  |  |  |  | < 1e-05
U57A C61A | 1.53e-05 ± 5.7e-06 |  |  |  |  |  | 
C16U A33U C71G | 2.09e-05 ± 7.7e-06 |  |  |  |  |  | 
A39U U54G | 0.0173 ± 0.0074 | 0.00453 ± 0.001 |  | 0.018 ± 0.0044 | 0.000704 ± 0.00014 |  | 0.00169 ± 0.00043
G13A U54C | 0.000629 ± 0.00013 | 0.000134 ± 2.4e-05 | 0.000405 ± 6.2e-05 | 0.000458 ± 7.1e-05 |  | 2490 ± 920 | 2.7e-05 ± 1e-05
C16G A33C | 4.59e-05 ± 3.9e-06 |  | 3.96e-05 ± 1.6e-05 | 4.28e-05 ± 1.3e-05 | < 1e-05 |  | 
U30G U65A | 0.00108 ± 0.00019 | 0.000157 ± 2.9e-05 | 0.000483 ± 0.00014 | 0.000797 ± 0.0001 | 3.04e-05 ± 1.2e-05 | 3500 ± 1100 | 
A6G U55A | 0.00056 ± 6.3e-05 | 0.000143 ± 1.7e-05 | 0.000388 ± 4.1e-05 | 0.000463 ± 4.3e-05 |  | 1630 ± 370 | 5.94e-05 ± 1.2e-05
A12G G37A | 0.000113 ± 2.5e-05 |  | 3.05e-05 ± 8.5e-06 | 6.97e-05 ± 1.1e-05 |  | 6320 ± 2800 | 
G29C A53U | 0.00163 ± 0.00038 | 0.000383 ± 6.3e-05 | 0.000902 ± 0.0002 | 0.00141 ± 0.00024 | 5.34e-05 ± 1.1e-05 | 1950 ± 640 | 0.000111 ± 1.9e-05
